Measurements as given in paper PMC5910394 (2018).
Each block holds one binder with its values, some of them ahead of it. Positions of bridges follow the written chain, without caps; N, C: chain ends. No end group written: not given here.

What was measured:
[1] = biological target: anti-HER2 memAb (trastuzumab-based, meditope-enabled anti-HER2 antibody); assay: SPR
[2] = biological target: Ile83Glu anti-HER2 memAb; assay: SPR
Ile83Glu anti-HER2 memAb, sequence (VH, as listed by the source, chain 1 of 2): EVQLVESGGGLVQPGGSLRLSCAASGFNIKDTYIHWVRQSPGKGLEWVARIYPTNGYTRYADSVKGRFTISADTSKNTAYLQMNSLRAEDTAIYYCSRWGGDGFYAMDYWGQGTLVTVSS
Ile83Glu anti-HER2 memAb, sequence (VL, as listed by the source, chain 2 of 2): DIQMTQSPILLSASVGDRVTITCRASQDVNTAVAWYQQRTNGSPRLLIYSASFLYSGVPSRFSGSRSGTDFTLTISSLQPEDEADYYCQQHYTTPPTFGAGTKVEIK

anti-HER2 memAb (trastuzumab-based, meditope-enabled anti-HER2 antibody), sequence (VH, as listed by the source, chain 1 of 2): as the sequence (VH, as listed by the source, chain 1 of 2) above
anti-HER2 memAb (trastuzumab-based, meditope-enabled anti-HER2 antibody), sequence (VL, as listed by the source, chain 2 of 2): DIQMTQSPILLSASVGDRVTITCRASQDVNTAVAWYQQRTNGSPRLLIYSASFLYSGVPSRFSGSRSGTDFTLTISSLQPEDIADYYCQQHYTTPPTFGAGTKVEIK

Kd [1]: 39 nM
B1: 5-diphenylalanine long meditope ((Ac)CQFDA(Ph)2STRRLRCGGSK) (peptide)
peptide: Ac-CQFDASTRRLRCGGSK
modifications: disulfide 1-12 (inferred); not fully specified (residue 5); printed as (Ac)CQFDA(Ph)2STRRLRCGGSK

Kd [2]: 20 nM
B2: original meditope (CQFDLSTRRLKC) (peptide)
peptide: CQFDLSTRRLKC
modifications: disulfide 1-12 (inferred)
